# Test results: patent publication US11112401B2, “Method for determining the cell mediated immune competence of a subject” (Oxford Immunotec Limited, priority 2016, dated 2021)
# B1: EBNA-3a Protein: Epstein barr nuclear antigen-3A as protein (number of peptides N/A) (protein, UniProt P12977 1-944, looked up)
# Epstein-Barr nuclear antigen 3: MDKDRPGPPALDDNMEEEVPSTSVVQEQVSAGDWENVLIELSDSSSEKEAEDAHLEPAQKGTKRKRVDHDAGGSAPARPMLPPQPDLPGREAILRRFPLDLRTLLQAIGAAATRIDTRAIDQFFGSQISNTEMYIMYAMAIRQAIRDRRRNPASRRDQAKWRLQTLAAGWPMGYQAYSSWMYSYTDHQTTPTFVHLQATLGCTGGRRCHVTFSAGTFKLPRCTPGDRQWLYVQSSVGNIVQSCNPRYSIFFDYMAIHRSLTKIWEEVLTPDQRVSFMEFLGFLQRTDLSYIKSFVSDALGTTSIQTPWIDDNPSTETAQAWNAGFLRGRAYGIDLLRTEGEHVEGATGETREESEDTESDGDDEDLPCIVSRGGPKVKRPPIFIRRLHRLLLMRAGKRTEQGKEVLEKARGSTYGTPRPPVPKPRPEVPQSDETATSHGSAQVPEPPTIHLAAQGMAYPLHEQHGMAPCPVAQAPPTPLPPVSPGDQLPGVFSDGRVACAPVPAPAGPIVRPWEPSLTQAAGQAFAPVRPQHMPVEPVPVPTVALERPVYPKPVRPAPPKIAMQGPGETSGIRRARERWRPAPWTPNPPRSPSQMSVRDRLARLRAEAQVKQASVEVQPPQLTQVSPQQPMEGPLVPEQQMFPGAPFSQVADVVRAPGVPAMQPQYFDLPLIQPISQGAPVAPLRASMGPVPPVPATQPQYFDIPLTEPINQGASAAHFLPQQPMEGPLVPEQWMFPGAALSQSVRPGVAQSQYFDLPLTQPINHGAPAAHFLHQPPMEGPWVPEQWMFQGAPPSQGTDVVQHQLDALGYTLHGLNHPGVPVSPAVNQYHLSQAAFGLPIDEDESGEGSDTSEPCEALDLSIHGRPCPQAPEWPVQEEGGQDATEVLDLSIHGRPRPRTPEWPVQGEGGQNVTGPETRRVVVSAVVHMCQDDEFPDLQDPPDEA
# System: peripheral blood mononuclear cells (PBMCs)
# Assay: ELISPOT screening of healthy donor samples with 23 commercially available peptide pools
# Type: cell-based, human
# Conditions: healthy donors, responsive donors/donors tested in brackets
molecule,measurement,value
B1,Percentage Responsive (10 spot arbitrary cut off),13% (19/137
